According to patent US20200071394A1:
pKd: −log10 of the molar value. Where two headings read alike, the source gives them in different places.

What was measured:
[1] = biological target: Recombinant Human IL-17A, Sino Biological, 12047-HNAS (human) (UniProt Q16552); test: cell-based or functional assay
[2] = biological target: Recombinant Human IL-17A, Sino Biological, 12047-HNAS (human) (UniProt Q16552); test: indirect ELISA, human IL-17A coated
[3] = biological target: Recombinant Human IL-17A, Sino Biological, 12047-HNAS (human) (UniProt Q16552); test: indirect ELISA, human IL-17A coated; remark: listed apart in the source
[4] = biological target: Recombinant Human IL-17A, Sino Biological, 12047-HNAS (human) (UniProt Q16552); test: SPR (Biacore), antibody captured by anti-human antibody on the chip, IL-17A as analyte, 1:1 model

Recombinant Human IL-17A, Sino Biological, 12047-HNAS (human), sequence (Q16552 24-155 limits assumed, form in doubt): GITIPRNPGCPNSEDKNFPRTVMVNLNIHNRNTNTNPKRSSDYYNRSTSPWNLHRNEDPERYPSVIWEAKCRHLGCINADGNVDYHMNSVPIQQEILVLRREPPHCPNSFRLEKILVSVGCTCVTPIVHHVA

“Novartis humanized anti-IL-17 antibody (Novartis mAb)” showed an IC50 of IL-6 release by HT1080 cells stimulated with IL-17A and TNFα [1] of 0.52 µg/mL, an IC80 of IL-6 release by HT1080 cells stimulated with IL-17A and TNFα [1] of 2.11 µg/mL and an IC90 of IL-6 release by HT1080 cells stimulated with IL-17A and TNFα [1] of 4.8 µg/mL. It also gave an EC50 [2] of 0.0341 µg/mL, an EC50 [3] of 0.0329 µg/mL and a pKd [4] of 9.95. For the same substance, the koff [4] was 0.000161 s⁻¹ and the kon [4] was 1.46e+06 M⁻¹ s⁻¹.
